These results are taken from the supplement of paper PMC12042874.

± gives the uncertainty stated by the source.

This data set can be described thus: amyloid nucleation score (Sup35N fusion, yeast selection) (log enrichment); library NNK3; higher = more nucleation; inactive = no reads after selection. The procedure, abridged: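 Nucleation score: DiMSum log enrichment of output over input reads, centred on the mode score of non-aggregating sequences. Only sequences with at least 100 input reads were kept. Reads came from Illumina sequencing of plasmid inserts before and after 7 days of growth at 30°C without adenine and uracil, in psi-negative yeast expressing Sup35N fused to peptides of 20 random codons after 24 hours of induction with 100 μM copper sulfate.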
The substance RFNGVVQEIVFCWRYRFVGN had an amyloid nucleation score of -0.631 ± 0.96.
Under RFPDLLQMVRAKAPDPLQQH stands “inactive”; under RFTRMWTDWCAGLSGSLRCS, “inactive”.
Under RFWFMDFFSH stands 1.89 ± 0.076; under RFYDYYTLQVRYMTLHATNG, “inactive”; under RFYTSCVCHHLLIYYLIGSS, “inactive”.
RGFAVSF gave an amyloid nucleation score of -0.678 ± 0.89.
On to RGFNYKMLFSSDLD, for which the amyloid nucleation score result was “inactive”.
With RGGGQDDYTRFLGSLNDVPV, the amyloid nucleation score entry was “inactive”.
Under RGICFGYLGFM stands 0.145 ± 0.3; under RGKCSNIETRIVRCWGGQVV, “inactive”.
Under RGMYMRYLGFLDHLNLRVFC stands “inactive”; under RGTMLLRNISIVCQLYPLST, “inactive”.
On to RGTVSQFVMAVNWFTSFVKR, for which the amyloid nucleation score entry was “inactive”.
For the substance RHFDSMTINLYTTSLTFFAN, the amyloid nucleation score entry is “inactive”.
As for RHNARRWCTVSC, the entry is “inactive”; as for RHVLQILLSKKRDATMLPNY, “inactive”.
As for RHVNCLAQLSDCKLTIM, the figure is 0.396 ± 0.38.
Turning to RHYKLGGSGTCDVSYGSCYD, the amyloid nucleation score result was “inactive”.
Under RIDRFCSFFNRSPSDCLLLS stands “inactive”; under RIEYVVPITPM, “inactive”.
Under RIFLIICKMYYFRNNRLFRM stands -0.508 ± 0.8.
Under RIKCMEIFERPCYFLFCLHK stands “inactive”.
Consider RILMCMLYAAGSMARYPIWG, for which the amyloid nucleation score entry was “inactive”.
On to RILTDGIIVLFL, for which the amyloid nucleation score entry is “inactive”.
As for RIRGMFGCPNNR, the entry is “inactive”.
As for RISSIAEDSSRAGASEHPGQ, the figure is -0.57 ± 1.8; as for RITGSRFCHCDLVNCDATVC, “inactive”.
As for RIVGIYKGLLAD, the entry is “inactive”; as for RKFTVSISRGNWSHAWTYSE, “inactive”.
RKKTNCHINYFMDALFERLA: the amyloid nucleation score result is “inactive”.
As for RKTRDSCTMGSNTTWRVIFC, the figure is 0.158 ± 0.49; as for RKVSSLVITRMAWMLSGNWL, 2.57 ± 0.051; as for RKWMHMDASVCVTIYWDAGL, 0.38 ± 0.4.
As for RLAKSMH, the entry is “inactive”.
Under RLCSKRVKSTDGGSEHRMSW stands “inactive”; under RLETMGLRNNVVCNSSEALQ, “inactive”.
For RLFDLVYSGLVFRKHSHTAM, the amyloid nucleation score result is “inactive”.
As for RLFSRDLTSFCFLFFNFRWK, the entry is “inactive”; as for RLFYCVSAVRIHVCGNSKLF, “inactive”.
Take RLGFRCSVLSDMLYVGVLGS: the amyloid nucleation score entry is “inactive”.
Under RLLPFIGIYNFSKKWLSKAL stands -0.313 ± 0.75; under RLMFWRELGLFSKFKLSIQG, “inactive”; under RLNCDCPAMHVCN, 2.35 ± 0.074.
As for RLNHKVFRSLCKKFLRWHGS, the entry is “inactive”; as for RLPRRSEDIKALRMDIRLYR, “inactive”; as for RLQMRSATLYCEGGSGAILY, “inactive”.
As for RLRYIGSILLLRRKVVFLMH, the entry is “inactive”; as for RLSLDRRNVRPDDMVHASGG, “inactive”; as for RLSLVFRHIAFTS, “inactive”.
As for RLSYRVNCLRCPNFWNRHMS, the amyloid nucleation score turned out to be 1.93 ± 0.11.
Under RLVDLAWRCYKIDKCLTCSS stands -0.589 ± 0.93; under RLVLYMPVLLSMVVTNWALL, 0.872 ± 0.15.
RLVVLMCCIGYFGPADMNFA: the amyloid nucleation score was determined as 2.66 ± 0.08.
For RLYNKSVTLAWRRFSGTKEL, the amyloid nucleation score entry is “inactive”.
As for RMAYNFTKSR, the amyloid nucleation score entry is “inactive”.
As for RMGVPTSYPDPDLSNDVER, the entry is “inactive”; as for RMHMKLVGKG, “inactive”.
In the case of RMLPRLQDAR, the amyloid nucleation score result was “inactive”.
As for RMNCQFTGMSTFRPPLLGAR, the entry is “inactive”; as for RMRSGSA, “inactive”; as for RNCVSSGCCRRFSD, “inactive”.
Take RNCYCWASVDI: the amyloid nucleation score result is “inactive”.
As for RNGIVGD, the entry is “inactive”; as for RNKSVVPHVLRELCFMVWLV, “inactive”; as for RNLYSIRANMWLNRQLRKYS, “inactive”.
For RNNCCAKVIYKWLSTFGQTD, the amyloid nucleation score entry is “inactive”.
For the substance RNNDVSEVKMLMKRELGFYN, the amyloid nucleation score entry was “inactive”.
Under RNSKLSCNVDTKSCFVECMN stands “inactive”; under RNSRSLSLPCC, “inactive”; under RNTLARKFVIRFTIFNAWSN, 1.28 ± 0.11.
RNTMSFNDSFTNALLLKSVG: the amyloid nucleation score result was “inactive”.
Under RNVIANEGLCQKR stands “inactive”; under RNVVAESRKSWGHCVRVTYT, “inactive”.
Under RPAGLWVTMWIYPVLRSTYV stands “inactive”; under RPFLCYLTAPASMNNTLNQV, “inactive”; under RPMKLRCASGWNVDTQFFDT, “inactive”.
As for RPNFDYTIWSMTNWILFTCD, the entry is “inactive”; as for RPPHYQCMCSLVLSSRRNIQ, “inactive”; as for RPSFLVGRFMTVLKSPRHDV, -0.692 ± 1.4.
With RPSSLIYFSSPNTRHGSPTL, the amyloid nucleation score entry is “inactive”.
As for RPVAFPIR, the entry is “inactive”.
As for RPVTPC, the entry is “inactive”; as for RQHLFRSWEVQMSLSLDF, -0.379 ± 0.63.
As for RQISLYFSFNRFSMYFTLNL, the entry is “inactive”; as for RQTTYHGGKWLCSSVSGMYN, “inactive”; as for RRDCCGE, 0.17 ± 0.75.
On to RREPQCYYWGAYCSVAASPA, for which the amyloid nucleation score result is “inactive”.
Under RRFGAFCIVPFERIVLDGWE stands “inactive”.
Under RRHAR stands “inactive”; under RRQLLVGIP, “inactive”; under RRTVYRHF, “inactive”.
Regarding RRWSLRWNHLM, the amyloid nucleation score entry is “inactive”.
Under RSFLIRFILDLVYIRRTRNV stands -0.273 ± 1.1.
Under RSICV stands “inactive”.
As for RSKNWAVIMIGR, the entry is “inactive”; as for RSLNPWLYAVSLHYEQFVGV, “inactive”.
In the case of RSPTNV, the amyloid nucleation score result is “inactive”.
As for RSQFV, the entry is “inactive”; as for RSRDIGVFTGVQCLVRYRRY, “inactive”.
Under RSRNAIVLGACYC stands “inactive”.
As for RSRSYRMGSLLVKSWILTLT, the entry is “inactive”; as for RSSKSEGYGFVGVGI, “inactive”.
The substance RSSSCLKTYLYLCGGWTSTF registered an amyloid nucleation score of 0.003 ± 0.26.
As for RSSSCVLFTAGTQNNRVFVV, the entry is “inactive”; as for RSVSNVFRLCLDAWGKVRRH, “inactive”; as for RSVVLNRADMECKQELVNLN, “inactive”.
Consider RSYFC, for which the amyloid nucleation score entry was “inactive”.
As for RTAVVWV, the entry is “inactive”; as for RTCSLRCFCYCHLYFYDVNT, “inactive”; as for RTGPTRALRVLHLDAMDALV, “inactive”.
Under RTKFWMRRKRLLPSILYNEL stands “inactive”.
On to RTKKMRNGASHRVMS, for which the amyloid nucleation score result was “inactive”.
As for RTPHELKFRCSFQKVWQGMV, the entry is “inactive”; as for RTRFVCICTSSNSLLYGRSS, 0.714 ± 0.25.
Turning to RTSFLGVID, the amyloid nucleation score result is “inactive”.
As for RTTINLLMCGHVMGFNSCLF, the figure is 1.99 ± 0.084; as for RTWTSCDVICLGICLRSLAK, “inactive”; as for RTYARYSMVGRLTMTSTRCE, “inactive”.
As for RVAHFY, the entry is “inactive”; as for RVCLL, -0.539 ± 1.4.
With RVCSW, the amyloid nucleation score entry is “inactive”.
Under RVDWRNGRVRRHLRHVLRIN stands “inactive”; under RVEMICFQDYLEYKRE, “inactive”.
As for RVGISTYLVVSEE, the entry is “inactive”; as for RVIATRDDCPFLGW, “inactive”.
As for RVIIRKCDYFG, the entry is “inactive”; as for RVKSVTVMMIFDNYSCMVCN, 1.93 ± 0.069; as for RVKVSYASYARK, 1.49 ± 0.12.
For the substance RVLNAYSLEYKCISSMPWYL, the amyloid nucleation score worked out at 1.49 ± 0.14.
As for RVMAMYIGV, the entry is “inactive”; as for RVMRHLFHFVCNKSLDYWYR, “inactive”.
